Results as given in patent US6350430B1, “Melanocortin receptor ligands and methods of using same” (Lion Bioscience Science AG, priority 1997, dated 2002).
Blank lines part the entries; values can stand above or below the molecule they belong to. *1 amine or outer side, *2 acyl side, *3 side chain or, on linkers, in order; H or OH if unused. Where a SMILES comes first, the peptide text is derived from it. [ ]: non-standard residue; d: D form. The star is where a group is joined. dPhe(4-125I) = para-(125I)iodo-D-phenylalanine, O=C([C@@H](Cc1ccc([125I])cc1)N[*:1])[*:2]; dPhe(4-Cl) = N[C@H](Cc1ccc(Cl)cc1)C(=O)O; dPhe(4-I) = N[C@H](Cc1ccc(I)cc1)C(=O)O; 2Nal = N[C@@H](Cc1ccc2ccccc2c1)C(=O)O; d2Nal = N[C@H](Cc1ccc2ccccc2c1)C(=O)O; Fmoc = O=C(OCC1c2ccccc2-c2ccccc21)*; Cha = N[C@@H](CC1CCCCC1)C(=O)O; d2Thi = N[C@H](Cc1cccs1)C(=O)O; Nle = CCCC[C@H](N)C(=O)O

Experiments:
[1] = target: MC receptors in rat brain homogenate; experiment: Melanocortin receptor binding assay using ^125I-HP 467 in rat brain homogenate; details: individual tetrapeptides
Procedure: For assays, fine chemicals were obtained from Sigma (St. Louis Mo.) and GF/B plates and MICROSCINT were obtained from Packard Instrument Co. (Meriden Conn.). Frozen rat brains were thawed and the thalamus and hypothalamus were dissected out and weighed. The tissue was homogenized in 40 ml buffer A (50 mM Tris-HCl, 2 mM EDTA, 10 mM CaCl2, 100 μM PMSF, pH 7.4) in a Dounce homogenizer. The homogenate was centrifuged at 39,000×g for 10 min, resuspended in 20 ml fresh buffer and recentrifuged. The pellet was resuspended in 80 ml buffer B (50 mM Tris-HCl, 2 mM EDTA, 10 mM CaCl2, 5 mM MgCl2, 100 μM PMSF, pH 7.4). ^125I-HP 467 was custom labeled by Amersham to a specific activity of 2000 Ci/mmol (Amersham; Arlington Heights IL). Fifty pM ^125I-HP 467 and 0.2 mg protein/ml membrane suspension containing 2 mg/ml BSA was added to each assay tube.
Competition assays were performed using α-MSH, γ1-MSH, γ2-MSH, γ3-MSH and ACTH (4-10) also containing 1 mM phenanthroline, 200 μg/ml bacitracin, and 5 μg/ml leupeptin. Tubes were incubated for 2 hours at 37° C. The assay was terminated by filtration through GF/B filters previously soaked in 5 mg/ml BSA Tris-HCl buffer. The samples were washed with Tris-HCl, dried and counted in Packard Minaxl gamma counter (Packard Instrument Co.).
IC50 values were determined in brain tissue as described in Example III.

[2] = target: MC receptors of mouse B16 cells (mouse); experiment: competition binding, mouse B16 cells; tracer not stated
Chain of MC receptors of mouse B16 cells (mouse) (Q01727 whole entry): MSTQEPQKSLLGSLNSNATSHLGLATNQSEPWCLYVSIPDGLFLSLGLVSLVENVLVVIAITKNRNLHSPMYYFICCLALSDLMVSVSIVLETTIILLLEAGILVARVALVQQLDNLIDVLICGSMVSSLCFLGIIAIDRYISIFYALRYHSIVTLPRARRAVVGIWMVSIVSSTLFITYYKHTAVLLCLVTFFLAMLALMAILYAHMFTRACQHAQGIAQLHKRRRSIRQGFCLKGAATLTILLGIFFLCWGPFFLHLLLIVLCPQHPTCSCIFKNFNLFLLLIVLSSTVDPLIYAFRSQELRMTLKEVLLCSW

[3] = target: MC receptors in rat brain homogenate (rat); experiment: competition binding, rat brain membranes
[4] = target: MC receptors in rat brain homogenate; experiment: Melanocortin receptor binding assay using ^125I-HP 467 in rat brain homogenate; details: saturation binding to rat brain membranes
hMC3 = target: T1, hMC3 (Homo sapiens, UniProt P41968); experiment: Displacement of ^125I-HP 467 in transfected mouse L cells expressing hMC3; details: receptor expressed in mouse L cells, read-out: Binding IC50, MC-3
T1 construct: expressed in transfected cells; host or cells: mouse L cells
T1 sequence (P41968 whole entry): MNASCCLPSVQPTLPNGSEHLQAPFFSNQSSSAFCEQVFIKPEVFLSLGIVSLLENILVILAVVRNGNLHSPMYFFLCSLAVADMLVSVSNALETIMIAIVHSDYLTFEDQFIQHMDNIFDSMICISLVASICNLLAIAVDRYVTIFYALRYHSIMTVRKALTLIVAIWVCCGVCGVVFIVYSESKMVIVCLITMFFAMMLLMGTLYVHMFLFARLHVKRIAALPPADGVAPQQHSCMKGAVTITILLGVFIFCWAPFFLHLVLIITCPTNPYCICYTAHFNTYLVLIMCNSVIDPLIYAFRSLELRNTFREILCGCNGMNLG

hMC4 = target: T2, hMC4 (Homo sapiens, UniProt P32245); experiment: Displacement of ^125I-HP 467 in transfected mouse L cells expressing hMC4; details: receptor expressed in mouse L cells, read-out: Binding IC50, MC-4
T2 construct: expressed in transfected cells; host or cells: mouse L cells
T2 sequence (P32245 whole entry): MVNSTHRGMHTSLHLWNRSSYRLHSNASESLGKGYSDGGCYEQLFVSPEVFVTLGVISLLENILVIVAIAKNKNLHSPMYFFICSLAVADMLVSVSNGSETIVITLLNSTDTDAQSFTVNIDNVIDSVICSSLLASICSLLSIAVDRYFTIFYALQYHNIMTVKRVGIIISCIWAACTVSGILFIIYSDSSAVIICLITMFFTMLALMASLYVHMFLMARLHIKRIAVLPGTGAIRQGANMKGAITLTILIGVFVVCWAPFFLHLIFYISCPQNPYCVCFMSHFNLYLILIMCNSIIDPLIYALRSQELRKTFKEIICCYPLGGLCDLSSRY

hMC1 = target: T3, hMC1 (Homo sapiens, UniProt Q01726); experiment: Displacement of ^125I-HP 467 in transfected mouse L cells expressing hMC1; details: receptor expressed in mouse L cells, read-out: Binding IC50, MC-1
T3 construct: expressed in transfected cells; host or cells: mouse L cells
T3 sequence (Q01726 whole entry): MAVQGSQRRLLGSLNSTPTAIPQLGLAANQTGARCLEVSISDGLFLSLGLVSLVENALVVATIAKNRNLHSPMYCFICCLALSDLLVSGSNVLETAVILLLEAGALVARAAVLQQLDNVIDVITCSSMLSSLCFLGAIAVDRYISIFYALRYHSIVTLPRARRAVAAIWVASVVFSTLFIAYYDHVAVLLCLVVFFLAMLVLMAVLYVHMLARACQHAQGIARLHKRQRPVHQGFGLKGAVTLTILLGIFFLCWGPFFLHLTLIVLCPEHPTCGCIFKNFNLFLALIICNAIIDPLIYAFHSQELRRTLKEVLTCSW

hMC5 = target: T4, hMC5 (Homo sapiens, UniProt P33032); experiment: Displacement of ^125I-HP 467 in HEK 293 cells expressing hMC5; details: receptor expressed in HEK 293 cells, read-out: Binding IC50, MC-5
T4 construct: expressed in transfected cells; host or cells: HEK 293 cells
T4 sequence (P33032 whole entry): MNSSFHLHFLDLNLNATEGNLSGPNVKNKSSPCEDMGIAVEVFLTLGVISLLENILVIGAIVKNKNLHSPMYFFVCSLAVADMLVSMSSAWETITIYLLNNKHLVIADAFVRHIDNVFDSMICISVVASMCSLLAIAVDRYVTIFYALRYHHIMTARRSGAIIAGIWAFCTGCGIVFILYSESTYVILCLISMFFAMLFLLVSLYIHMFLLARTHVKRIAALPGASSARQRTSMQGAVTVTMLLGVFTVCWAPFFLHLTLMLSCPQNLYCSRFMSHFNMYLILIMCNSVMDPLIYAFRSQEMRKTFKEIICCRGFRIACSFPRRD

[5] = target: human melanocortin receptor 4 (human) (UniProt P32245); experiment: saturation radioligand binding; mouse L cells expressing MC4
Chain of human melanocortin receptor 4 (human) (P32245 whole entry): as the sequence (P32245 whole entry) above

[6] = target: human melanocortin receptor 1 (human) (UniProt Q01726); experiment: saturation radioligand binding; mouse L cells expressing MC1
Chain of human melanocortin receptor 1 (human) (Q01726 whole entry): as the sequence (Q01726 whole entry) above

[7] = target: human melanocortin receptor 1 (human) (UniProt Q01726); experiment: saturation radioligand binding; HEK 293 cells expressing MC1
[8] = target: human melanocortin receptor 3 (human) (UniProt P41968); experiment: saturation radioligand binding; mouse L cells expressing MC3
Chain of human melanocortin receptor 3 (human) (P41968 whole entry): as the sequence (P41968 whole entry) above

[9] = target: human melanocortin receptor 3 (human) (UniProt P41968); experiment: saturation radioligand binding; HEK 293 cells expressing MC3
[10] = target: T5, MC receptor in mouse B16 cells (Mus musculus, UniProt Q01727); experiment: MC receptor binding activity in mouse B16 cells; details: individual tetrapeptides
T5 construct: endogenous in cells; host or cells: mouse B16 cells
T5 sequence (Q01727 whole entry): as the sequence (Q01727 whole entry) above
Text: The 36 peptides were screened for MC receptor binding activity in rat brain and in mouse B16 cells.

Sprague-Dawley rats = experiment: HP 467 antagonism of HP 228 induced hypophagia (food intake); format: in vivo; details: IP BID, HP 228 1.5 mg/kg, HP 467 3.0 mg/kg
Procedure: Male Sprague-Dawley rats weighing 250 to 300 grams were divided into three treatment groups of 8 rats each. The control group received IP saline injections BID (1 ml/kg) at 8 AM and 4 PM. […] After each injection, each rat immediately received a second injection. […] All injections started at 4 PM on day 0 and ended on the afternoon of day 2. Food consumption and body weight measurements were taken daily, each morning.

[11] = target: MC receptors in rat brain homogenate (rat); experiment: saturation radioligand binding, rat brain membranes

Molecule: CC(=O)NCCCC[C@H](NC(=O)OCC1c2ccccc2-c2ccccc21)C(=O)N[C@@H](CCCNC(=N)N)C(=O)N[C@@H](CCCNC(=N)N)C(=O)N[C@@H](Cc1ccc2ccccc2c1)C(N)=O [Ac-(αFmLys)-R-R-(Nal)-NH2] (Fmoc-K(Ac)RR[2Nal]-NH2)
IC50 [1]: 2000 nM

Molecule: Ac-(αFmLys)-R-(L-Cha)-r-NH2 (peptide)
IC50 [2]: 185 nM
IC50 [3]: 427 nM

Molecule: CCCC[C@H](NC(C)=O)C(=O)N[C@@H](CCC(N)=O)C(=O)N[C@@H](Cc1c[nH]cn1)C(=O)N[C@H](Cc1ccc(I)cc1)C(=O)N[C@@H](CCCNC(=N)N)C(=O)N[C@H](Cc1c[nH]c2ccccc12)C(=O)NCC(N)=O [^125I-HP 467, Ac-Nle-Gln-His-(p(^125I)-D-Phe)-Arg-(D-Trp)-Gly-NH2] (Ac-[Nle]QH[dPhe(4-I)]R[dW]G-NH2)
Kd [4]: 0.4 nM

Molecule: CC(=O)N[C@@H](Cc1c[nH]cn1)C(=O)N[C@H](Cc1ccc(Cl)cc1)C(=O)N[C@@H](CCCNC(=N)N)C(=O)N[C@H](Cc1ccc2ccccc2c1)C(N)=O [Ac—H-(pCl-f)-R-(D-Nal)-NH2, Ac-His-(pCl-f)-Arg-(D-Nal)-NH2] (Ac-H[dPhe(4-Cl)]R[d2Nal]-NH2)
IC50 [1]: 51 nM
IC50 ([1]; listed as Ac-His-(pCl-f)-Arg-(D-Nal)-NH2): 18 nM

Molecule: CC(=O)NCCCC[C@H](NC(=O)OCC1c2ccccc2-c2ccccc21)C(=O)N[C@H](Cc1cccs1)C(=O)N[C@@H](CCCNC(=N)N)C(=O)N[C@@H](Cc1ccc2ccccc2c1)C(N)=O [Ac-(αFmLys)-(D-Thi)-R-(Nal)-NH2] (Fmoc-K(Ac)[d2Thi]R[2Nal]-NH2)
IC50 [1]: 469 nM

Molecule: Ac-H-(pcl-f)-(L-Cha)-r-NH2 (peptide)
IC50 [2]: 156 nM

Molecule: Ac-(αFmLys)-(pCl-f)-R-(Nal)-NH2 (peptide)
IC50 [2]: 41 nM
IC50 [3]: 427 nM

Molecule: ^125I-HP 467, Ac-Nle-Gln-His-(p(^125I)-D-Phe)-Arg-(D-Trp)-Gly-NH2
Kd [5]: 0.082 nM
Kd [6]: 0.092 nM
Kd [7]: 0.132 nM
Kd [8]: 0.04 nM
Kd [9]: 0.29 nM

Molecule: Ac-(αFmLys)-R-R-(Nal)-NH2 (peptide)
IC50 [2]: 1420 nM
IC50 [3]: 2000 nM

Molecule: CCCC[C@H](NC(C)=O)C(=O)N[C@@H](CCC(N)=O)C(=O)N[C@@H](Cc1c[nH]cn1)C(=O)N[C@H](Cc1ccccc1)C(=O)N[C@@H](CCCNC(=N)N)C(=O)N[C@H](Cc1c[nH]c2ccccc12)C(=O)NCC(N)=O [HP 228, Ac-(Nle)QHfRwG-NH2, reference compound]
IC50 (hMC1): 1.49 nM
IC50 (hMC5): 194 nM
Hypophagia (food intake) Change, Day 1 (Sprague-Dawley rats; Day 1): −6.8%
Hypophagia (food intake) Change, Day 2 (Sprague-Dawley rats; Day 2): −5.3%

Molecule: CC(=O)NCCCC[C@H](NC(=O)OCC1c2ccccc2-c2ccccc21)C(=O)N[C@H](Cc1ccc(Cl)cc1)C(=O)N[C@@H](CCCNC(=N)N)C(=O)N[C@@H](Cc1ccc2ccccc2c1)C(N)=O [Ac-(αFmLys)-(pCl-f)-R-(Nal)-NH2] (Fmoc-K(Ac)[dPhe(4-Cl)]R[2Nal]-NH2)
IC50 [1]: 427 nM

The next lines start with the values.

IC50 [2]: 68 nM
IC50 [3]: 18 nM
Molecule: AC-H-(pcl-f)-R-(Nal)-NH2 (peptide)

IC50 [3]: 469 nM
Molecule: Ac-(αFmLys)-(D-Thi)-R-(Nal)-NH2 (peptide)

IC50 [1]: > 4000 nM
Molecule: CC(=O)NCCCC[C@H](NC(=O)OCC1c2ccccc2-c2ccccc21)C(=O)N[C@@H](CCCNC(=N)N)C(=O)N[C@@H](CC1CCCCC1)C(=O)N[C@@H](Cc1ccc2ccccc2c1)C(N)=O [Ac-(αFmLys)-R-(L-Cha)-(Nal)-NH2] (Fmoc-K(Ac)R[Cha][2Nal]-NH2)

IC50 [2]: 1140 nM
Molecule: Ac-(αFmLys)-R-(L-Cha)-(Nal)-NH2 (peptide)

IC50 [2]: 19 nM
IC50 [3]: 51 nM
Molecule: Ac-H-(pCl-f)-R-(D-Nal)-NH2 (SEQ ID NO:18) (peptide)

IC50 (hMC3): 0.48 nM
IC50 (hMC4): 0.31 nM
IC50 (hMC1): 0.23 nM
IC50 (hMC5): 0.46 nM
Molecule: CCCC[C@H](NC(C)=O)C(=O)N[C@@H](CCC(N)=O)C(=O)N[C@@H](Cc1c[nH]cn1)C(=O)N[C@H](Cc1ccc(I)cc1)C(=O)N[C@@H](CCCNC(=N)N)C(=O)N[C@H](Cc1c[nH]c2ccccc12)C(=O)NCC(N)=O [HP 467, Ac-Nle-Gln-His-(p(I)-D-Phe)-Arg-(D-Trp)-Gly-NH2] (Ac-[Nle]QH[dPhe(4-I)]R[dW]G-NH2)

IC50 [1]: 18 nM
Molecule: CC(=O)N[C@@H](Cc1c[nH]cn1)C(=O)N[C@H](Cc1ccc(Cl)cc1)C(=O)N[C@@H](CCCNC(=N)N)C(=O)N[C@@H](Cc1ccc2ccccc2c1)C(N)=O [AC—H-(pcl-f)-R-(Nal)-NH2] (Ac-H[dPhe(4-Cl)]R[2Nal]-NH2)

IC50 [1]: 427 nM
Molecule: CC(=O)NCCCC[C@H](NC(=O)OCC1c2ccccc2-c2ccccc21)C(=O)N[C@@H](CCCNC(=N)N)C(=O)N[C@@H](CC1CCCCC1)C(=O)N[C@H](CCCNC(=N)N)C(N)=O [Ac-(αFmLys)-R-(L-Cha)-r-NH2] (Fmoc-K(Ac)R[Cha][dR]-NH2)

IC50 [1]: > 5000 nM
IC50 [10]: 156 nM
Molecule: CC(=O)N[C@@H](Cc1c[nH]cn1)C(=O)N[C@H](Cc1ccc(Cl)cc1)C(=O)N[C@@H](CC1CCCCC1)C(=O)N[C@H](CCCNC(=N)N)C(N)=O [Ac—H-(pcl-f)-(L-Cha)-r-NH2] (Ac-H[dPhe(4-Cl)][Cha][dR]-NH2)

Bmax (fmoles/mg protein) [11]: 21
Kd [11]: 0.4 nM
Molecule: Ac-[Nle]QH[dPhe(4-125I)]R[dW]G-NH2 [^125I-HP 467, Ac-Nle-Gln-His-(p(^125I)-D-Phe)-Arg-(D-Trp)-Gly-NH2]
